The values that follow come from PMC10267580 (2023).

Assay [1] concerns the target Rab6B^Q72L, GTPase domain (residues 8-176), constitutively active mutant (mouse, UniProt P61294 8-176, Q72L). Description: ITC.
Assay [2] deals with Rab6B^Q72L L11E, GTPase domain (mouse, UniProt P61294 8-176, Q72L | L11E). Description: ITC.

Where only a bound is given, the exact number is not on record here.

Chain of Rab6B^Q72L, GTPase domain (residues 8-176), constitutively active mutant (P61294 8-176 Q72L): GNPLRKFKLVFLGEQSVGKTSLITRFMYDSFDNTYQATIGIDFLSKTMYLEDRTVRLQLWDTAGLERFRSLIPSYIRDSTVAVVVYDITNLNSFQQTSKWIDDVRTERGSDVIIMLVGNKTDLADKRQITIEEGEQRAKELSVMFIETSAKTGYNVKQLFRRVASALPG
Chain of Rab6B^Q72L L11E, GTPase domain (P61294 8-176 L11E/Q72L): as the sequence (P61294 8-176 Q72L) above, with L4E counted along it

B1: ELKS1_RBD S868A (domain or fragment)
chain: RKHLEEVLEMKQEALLAAIAEKDANIALLELSSSKKKTQEEVAALKREKDRLVQQLKQQTQNRMKLMADNYEDD
As for B1, binding in assay [1] was put at a Kd of 26 µM.

B2: ELKS1_RBD, Rab-binding domain of ELKS1 (residues 849-922) (domain or fragment)
chain: RKHLEEVLEMKQEALLAAISEKDANIALLELSSSKKKTQEEVAALKREKDRLVQQLKQQTQNRMKLMADNYEDD
Consider B2, for which the Kd in assay [2] was more than 50 µM.
